Biological target: CCR5 chemokine receptor (human) (UniProt P51681)
Assay: cell-based or functional assay

Chain of UniProt P51681 (P51681 whole entry): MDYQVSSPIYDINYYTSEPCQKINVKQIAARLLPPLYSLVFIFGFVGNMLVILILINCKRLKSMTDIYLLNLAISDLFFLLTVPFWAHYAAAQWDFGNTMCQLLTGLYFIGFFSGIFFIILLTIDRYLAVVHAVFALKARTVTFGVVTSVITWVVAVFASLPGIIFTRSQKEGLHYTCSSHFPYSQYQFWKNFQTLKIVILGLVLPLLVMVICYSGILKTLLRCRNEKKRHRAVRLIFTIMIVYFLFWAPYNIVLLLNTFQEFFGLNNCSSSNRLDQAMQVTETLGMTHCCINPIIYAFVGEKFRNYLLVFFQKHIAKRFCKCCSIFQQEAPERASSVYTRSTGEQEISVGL

Row | Substance | potency at preventing infection of PBMC with R5 HIV-1 SF162, relative to AOP-RANTES | inhibition of replication of dual-tropic HIV-1 89.6 in vitro (p24 ELISA) | inhibition of replication of primary dual-tropic HIV-1 isolates from patients in vitro (p24 ELISA)
1 | n-nonanoyl-RANTES (2-68) (from UniProt P13501 25-91) (ligand) | 3 fold | – | –
2 | aminooxypentane-RANTES (2-68) (from UniProt P13501 25-91) (ligand) | – | 50% | 80 to 90%

Source: US6942852
